These results are taken from article PMC12802541.

Experiment [1] deals with Rabbit skeletal actin (rabbit) (UniProt P68135). As to the kind of experiment: TIRF microscopy; 50 nM phosphorylated NM2 filaments added to anti-parallel actin arrays anchored by their barbed ends on patterned formin; MB150 (150 mM KCl, 5 mM MgCl2, 0.1 mM EGTA, 20 mM MOPS, pH 7.4), 1 mM ATP, 1 mM DTT, 0.6% methylcellulose, 30 °C.
Experiment [2] shares this target.

As to “Non-muscle myosin 2B, Halo-tagged, phosphorylated, pre-polymerized filaments (from UniProt P35580 1-1976; P60660 1-151; O14950 1-172) (complex)”, in experiment [1], the dwell time (lifetime of attachment) is over 15 min.

For “TsMod NM2A (non-muscle myosin 2A with an embedded FRET-based tension sensor module), RLC phosphorylated (from UniProt P35579 1-1960; P60660 1-151; O14950 1-172) (complex)”, the fraction of tension sensor modules that are tensed (amplitude of the long lifetime component, global fit of FLIM) on patterned actin bundles in experiment [2] turned out to be 80%.
